From US20220403048A1, “BINDING MOLECULES TO ARGINASE II [ARG2]” (Cancer Research Technology Limited, priority 2019, published 2022) come the findings set out here.

Changes are numbered by the printed parent chain.

The chains are these.
T1: human ARG2 (Homo sapiens, UniProt P78540, E275H/R327K)
T1 construct: His10 (after a GGG linker) (C); made in house; host or cells: E. coli BL21 (DE3)
T1 sequence (P78540 23-354 E275H/R327K): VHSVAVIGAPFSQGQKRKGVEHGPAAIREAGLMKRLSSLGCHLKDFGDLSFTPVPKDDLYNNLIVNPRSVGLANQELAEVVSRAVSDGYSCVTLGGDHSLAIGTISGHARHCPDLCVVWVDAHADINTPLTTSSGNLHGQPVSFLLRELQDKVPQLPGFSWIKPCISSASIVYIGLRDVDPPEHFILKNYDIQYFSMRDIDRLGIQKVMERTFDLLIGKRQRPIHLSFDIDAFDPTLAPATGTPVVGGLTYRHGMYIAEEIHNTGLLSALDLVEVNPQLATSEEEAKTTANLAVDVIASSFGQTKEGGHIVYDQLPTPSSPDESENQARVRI

T2: human ARG1 (Homo sapiens, UniProt P05089)
T2 construct: Avi tag (N); His10 (after a GGG linker) (C); made in house; host or cells: E. coli BL21 (DE3)
T2 sequence (P05089 with tags, fused parts or gaps): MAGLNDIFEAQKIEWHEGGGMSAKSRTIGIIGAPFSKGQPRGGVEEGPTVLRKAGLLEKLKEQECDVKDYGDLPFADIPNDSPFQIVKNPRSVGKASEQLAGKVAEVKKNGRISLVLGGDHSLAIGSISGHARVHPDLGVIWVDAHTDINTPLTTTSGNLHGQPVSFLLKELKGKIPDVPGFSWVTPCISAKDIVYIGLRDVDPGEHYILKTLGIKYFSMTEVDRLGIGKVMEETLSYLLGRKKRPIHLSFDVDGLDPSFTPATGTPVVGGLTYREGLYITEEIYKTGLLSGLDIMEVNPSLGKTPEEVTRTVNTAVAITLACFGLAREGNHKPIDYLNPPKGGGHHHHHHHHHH

B1: C0021128: anti-ARG2 antibody, VH SEQ ID NO: 162, VL SEQ ID NO: 167 (antibody, listed as Homo sapiens, V domains shown)
VH: EVQLLESGGGLVQPGGSLRLSCAASGFTFQYEVAAWVRQAPGKGLEWVSAISGPIPKGYYADSVKGRFTISRDNSKNTLYLQMNSLRAEDTAVYYCARLRADLGLYMDLWGRGTLVTVSS
VL: QSVLTQPPSVSAAPGQKVTISCSGSSSNIGNHYVSWYQQLPGTAPKLLIYDNAIESSGIPDRFSGSKSGTSATLGITGLQTGDGADYYCGTWDSNLSALVFGGGTKLTVL
modifications: C0021128
B2: C0021032 Fab (antibody, V domains shown)
VH: EVQLLESGGGLVQPGGSLRLSCAASGFTFSSYAMSWVRQAPGKGLEWVSAYGYGIGSTYYADSVKGRFTISRDNSKNTLYLQMNSLRAEDTAVYYCARLRADLGLYMDLWGRGTLVTVSS
VL: B1 VL with A53S, I54E, E55R, S56P, G84E, N95S
B3: C0021096 Fab (antibody, V domains shown)
VH: EVQLLESGGGLVQPGGSLRLSCAASGFTFSSYAMSWVRQAPGKGLEWVSAISGYSGYYADSVKGRFTISRDNSKNTLYLQMNSLRAEDTAVYYCARLRADLGLYMDLWGRGTLVTVSS
VL: B1 VL with D51N, N52T, A53E, I54R, E55R, S56M, G84E, N95S
B4: C0021097 Fab (antibody, V domains shown)
VH: B2 VH with Y51I, G52S, G54H, I55P
VL: B1 VL with D51N, N52T, A53F, I54A, E55R, S56P, G84E, N95S
B5: C0021101 Fab (antibody, V domains shown)
VH: B3 VH with L45P, Y54F, G56P
VL: B1 VL with D51N, A53R, I54S, E55P, S56T, G84E, N95S
B6: C0021142 Fab (antibody, V domains shown)
VH: B2 VH with Y51H, G52T, Y53H, G54S, I55P
VL: B1 VL with A53S, I54E, E55R, S56P, G84E, N95S
B7: C0021141 Fab (antibody, V domains shown)
VH: B2 VH with S30Y, S31P, Y32D, A33P, M34Q, S35G
VL: B1 VL with K17E, G30D, A53S, I54E, E55R, S56P, G84E, N95S
B8: C0021118 Fab (antibody, V domains shown)
VH: B2 VH with Y51S, G52L, Y53T, G54N, I55P
VL: B1 VL with A53S, I54E, E55R, S56P, G84E, G90A, W92Y, S94T
B9: C0021021 Fab (antibody, V domains shown)
VH: B2 VH with A50S, Y51I, G52L, Y53F, G54S, I55P
VL: B1 VL with A53S, I54E, E55R, S56P, G84E, N95S
B10: C0021144: anti-ARG2 antibody, VH SEQ ID NO: 252, VL SEQ ID NO: 257 (antibody, listed as Homo sapiens, V domains shown)
VH: B1 VH with Q30R, E32D, V33Y, A34H, A35V, P54S, I55G, P56G, K57S, G58T
VL: QSVLTQPPSVSAAPGQKVTVSCSGSSSNIGNHHVSWYQQLPGTAPKLLIYDTTVLSSGVPDRFSGSKSGTSATLGITGLQTGDEADYYCGTWDELTSNLVFGGGTKLTVL
modifications: C0021144
B11: C0021155: anti-ARG2 antibody, VH SEQ ID NO: 262, VL SEQ ID NO: 267 (antibody, listed as Homo sapiens, V domains shown)
VH: EVQLLESGGGLVQPGGSLRLSCEASGFTFRYDYHVWVRQAPGKGLEWVSAISGSGGSTYYADPVKGRFTISRDNSKNTLYLQMNSLRAEDTAVYYCARLRADLGLYMDLWGRGTLVTVSS
VL: B10 VL with Q1R, V20I, H33Y, V59I, K106R
modifications: C0021155

Sequence of cynomolgus ARG2 (as listed by the source): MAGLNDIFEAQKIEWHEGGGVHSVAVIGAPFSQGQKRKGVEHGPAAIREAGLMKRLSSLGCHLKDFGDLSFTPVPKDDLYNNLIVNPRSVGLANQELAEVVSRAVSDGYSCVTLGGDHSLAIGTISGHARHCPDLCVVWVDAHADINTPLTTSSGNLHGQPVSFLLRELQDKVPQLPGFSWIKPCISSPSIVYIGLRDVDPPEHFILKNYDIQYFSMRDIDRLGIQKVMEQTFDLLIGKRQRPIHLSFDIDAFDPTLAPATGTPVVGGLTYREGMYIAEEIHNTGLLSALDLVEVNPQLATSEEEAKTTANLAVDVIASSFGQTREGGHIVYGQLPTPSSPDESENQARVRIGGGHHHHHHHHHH

One assay concerns cynomolgus ARG2. Kind of assay: Bio-Layer Interferometry (OctetRED) binding kinetics, cynomolgus ARG2. Conditions: Fab as analyte; cyno ARG2 ligand; affinity-matured antibodies. From the text:
(§1) The OctetRED (Pall ForteBio) instrument was used to assess the kinetic parameters of the interactions between C0020187 and recombinantly produced human ARG2, cynomolgus ARG2 and human ARG1. The Octet biosensor uses an optical analytical technique that analyses the interference pattern of white light reflected from two surfaces: a layer of immobilised protein on the sensor tip, and an internal reference layer. Any changes in binding at the biosensor tip result in a shift in interference pattern, which can be measured in real time. Molecules associating with or dissociating from ligands at the biosensor tip shift the interference pattern and generate a response on the Octet system which is recorded by the acquisition software.
(§2) Typically, a defined concentration of the analyte species is brought into contact with the coupled ligand and any binding is detected as an increased in signal (association phase). This is followed by a period of buffer rinse, during which dissociation of the analyte species from the surface immobilised ligand can be observed as a decrease in signal (dissociation phase). Repetition of this with a range of analyte concentrations provides data for the analysis of binding kinetics.
(§3) An Octet Kinetics Buffer (PBS containing 0.01% BSA and 0.002% Tween20) is typically used as the diluent buffer for the analyte samples and as the flow buffer during the dissociation phase. The experimental data is recorded over time as shift in interference pattern (nm) over time, which is directly proportional to the optical thickness at the biosensor tip, which in turn is an approximate measure of the mass of analyte bound. The proprietary Octet Data Analysis software package can then be used to process data and fit binding models to the data sets. Returned association (ka, M^−1 s^−1) and dissociation (kd, s^−1) rate constants allow calculation of dissociation (KD, M) affinity constants.
(§4) The affinity of binding between the Fab of C0020187 and human ARG2, cynomolgus ARG2 and human ARG1 was estimated using assays in which the biotinylated ARG antigen was captured on a streptavidin sensor tip. A fresh sensor tip was used for each measurement and no regeneration was used. A series of dilutions of the C0020187 Fab (3.25-240 nM) were individually placed in contact with the ligand surface for a sufficient amount of time to observe sensorgrams that could be fitted to an appropriate binding model with confidence (typically 5 minutes), followed by an appropriate length of dissociation time (typically 10 minutes). Blank reference (0 nM Fab) data were subtracted from each dataset to reduce the impact of any buffer artefacts or non-specific binding effects. An appropriate binding model was then fitted simultaneously to the data from each analyte titration using the Octet Evaluation software.
(§5) Example results for C0020187 are shown in Table 9, showing the association rate constants (ka), dissociation rate constants (kd) and dissociation constants (KD). These parameters were derived from a 1:1 binding fit to the data.
(§6) The affinities of the affinity-matured antibodies to human ARG2 were measured on the OctetRED system as described in section 1.15 using the streptavidin capture method. Typically, an analyte titration range of 1.8 to 120 nM was used.
The affinities of some of these antibodies to cynomolgus ARG2 were determined using the same assay, and the derived kinetic parameters are shown in Table 21.
On the technique in general: Biolayer interferometry detects binding as a change in optical thickness at a sensor tip.
For the molecule B1, the ka stood at 437000 M⁻¹ s⁻¹ and the kd worked out at 0.000771 s⁻¹.

Another assay has as its target T1, human ARG2. Nature of the assay: Bio-Layer Interferometry (OctetRED) binding kinetics, human ARG2. Conditions: Fab as analyte; streptavidin capture; analyte 1.8 to 120 nM; affinity-matured antibodies.
Excerpt: as §1, §2, §3, §4, §5, §6
The affinities of the second-generation antibodies to human ARG2 were measured on the OctetRED system. A screening assay which stably captures His-tagged ARG2 as the ligand on an anti-His surface was utilised to screen the second-generation candidates as Fabs at an analyte range of 1.8 to 120 nM, with an association time of 5 minutes and a dissociation time of 10 minutes. Sensors were regenerated using 10 mM glycine pH 1.5 after each cycle. Based on this assay, six candidates with estimated affinities in the sub-nanomolar range were identified, and they were further profiled using an extended assay which is more suitable for antibodies of high affinities. […]
B2 yielded a ka of 427000 M⁻¹ s⁻¹ and a kd of 0.00228 s⁻¹.

B3 displayed a ka of 441000 M⁻¹ s⁻¹ and a kd of 0.00154 s⁻¹.

Turning to B4, the ka came to 295000 M⁻¹ s⁻¹ and the kd worked out at 0.00146 s⁻¹.

Turning to B5, the ka was found to be 314000 M⁻¹ s⁻¹ and the kd amounted to 0.00107 s⁻¹.

Consider B6, for which the ka came to 399000 M⁻¹ s⁻¹ and the kd was 0.0011 s⁻¹.

B7 registered a ka of 326000 M⁻¹ s⁻¹ and a kd of 0.00108 s⁻¹.

Regarding B8, the ka amounted to 139000 M⁻¹ s⁻¹ and the kd was 0.00114 s⁻¹.

The molecule B9 returned a ka of 473000 M⁻¹ s⁻¹ and a kd of 0.002 s⁻¹.

Regarding B1, the ka was 266000 M⁻¹ s⁻¹ and the kd was 0.000674 s⁻¹.

Still in this assay, the particulars now being: second-generation Fab; extended assay: association 10 min, dissociation 40 min, 0.47 to 30 nM, streptavidin surface with bio-ARG2.
Molecule B10 displayed a ka of 195000 M⁻¹ s⁻¹ and a kd of 6.59e-05 s⁻¹.

With B11, the ka is 159000 M⁻¹ s⁻¹ and the kd was 5.67e-05 s⁻¹.

For the next assay, the target named is T2, human ARG1. Nature of the assay: Bio-Layer Interferometry (OctetRED) binding, human ARG1. Conditions: Fab analyte up to 120 nM, screening assay on anti-His surface. The protocol:
as §4
The binding of affinity-matured antibodies to human ARG1 was also tested on the OctetRED system using a screening assay which stably captures […] as the ligand on an anti-His surface. The Fabs were typically tested in an analyte range of 1.8 to 120 nM, with an association time of 5 minutes and a dissociation time of 10 minutes. Sensors were regenerated using 10 mM glycine pH 1.5 after each cycle.
Binding of the second-generation antibodies to human ARG was also tested on the OctetRED system using a screening assay which stably captures […] as the ligand on an anti-His surface. The Fabs were tested as analyte up to 120 nM, with an association time of 5 minutes and a dissociation time of 10 minutes. Sensors were regenerated using 10 mM glycine pH 1.5 after each cycle.
For the molecule B10, the “Results, binding to human ARG1 (BLI)” value is “No binding observed”.

Regarding B11, the “Results, binding to human ARG1 (BLI)” value is reported as “No binding observed”.

Regarding B1, the “Results, binding to human ARG1 (BLI)” value is reported as “No binding observed”.
